The values below come from the DeepSol protein solubility set.

A short description of this data set: soluble on expression in E. coli; label from the status in PepcDB or PDB records.
For the sequence “MSLDKPYHVKFYSYNFPLPKPVVTAHGHWQRRRGLIVELTDQRGNRGRGEIAPLPWFGTEDLASATDFCRSLKGRITPAQIEKIGDRLPCCGFAFGSAEWELESGSVIENSPNSLSYCQLLPTGEAALDYLASNPQLGASTFKWKIGVGDFAVERDLYGQLWRRLPEGCQIRLDANGGLSVDIAQQWLTLLDRQRENSGPKIQYLEQPLPPGEIDEMFRLQEDFATSIALDEAVCSLAQLAQLYDKGWSGLYILKAAIMGNPRVLNHWLKTHPIPAIFSSVFETAIARGQVLALAQKWNLPDHAVGFAPLREPITEATPDSVEGHHHHHH”, the “soluble on expression in E. coli” value is listed as “soluble”. Regarding “MSLDLRKINLNLLLHLDTLLNELSVSKAAEKSFMSQTAMSHILKQLRDIFDDPLFIRKPHGLQPTQKVLDLAPKIKKFLNYSNDIFEEDTFNPGNDNLFLKTASVGTGEYFILPRLCAHLAKNAPKFVLKISSLSEYLSLEYLLMSELDFAIGPGFVETGNNIIRELLFEEEAVCIMHKSHPLANQELTQDMYLQAEHVDIQFSYMGNENILYKALQGYHQRNIKVIVPNIISALEVVYHTNFITTVPRTLAVTFKDRYQIELHPFPFPKKTFLVNFYYHKRLSNHKPLQWVLDVIKKYCCVNHEGHHHHHH”, the “soluble on expression in E. coli” value is listed as “soluble”. Then “MSLDNVIDEVVWVIGDEAILKSDVEEARLAALYEGRKFDGDPYCVIPEELAVQKLYMHQAVLDSIEVPEAEVIQRVDYQISNYIQALGSRERMEAEFNKTSTQIREAMRENARDGLIVQRMQQKLVGDIKVTPAEVRRYFKELPQDSIPYVPTQVEVQIITQQPKIPVAEIEDVKRRLREYTDRINKGESDFSTLALLYSEDRGSAIKGGETGFMGKGQMVPEYANVAFNLQDTKKISKIVESEYGFHIIQLIEKRGDRINTRHILLKPKVSDKELDEANARLDSIANDIRSDKFTFDQAASALSQDKDTRNNHGLMQNPQNQTAKFEMQDLPQEIAKVVDKMNIGEISKAFTMVNPKDGKEVCAIVKLKSRINGHKATITDDYQNLKEIVLDKRREEALQKWIVEKQKHTYVRINPAWQRCDFKYPGWIKKEGHHHHHH”, with “soluble”; and “MSLDPAHTPDPAHPHDQEAAHAEDPARAIGSARLLDVDPLLDDPGTRIVVCCGSGGVGKTTTAAALGLRAAERGRKVVVLTIDPARRLAQSMGIDSLDNIPRRVKGIDDSASGELHAMMLDMKRTFDEIVEAHADRERAAAILSNPFYQSLSAGFAGTQEYMAMEKLGQLRARDEWDLIIVDTPPSRSALDFLDAPKRLGSFLDGKLIRLLTAPAKLGGRAGMKFLNVGMSMMTGTLGKLLGGQLLKDVQTFVAAMDTTFGGFRTRADATYKLLQAPGTAFLVVAAPERDALREAAYFVERLAAEDMPLAGLVLNRVHGSGAAQLSAERALAAAENLDLAADPGSTENLEESRIVDQEGGKAGLRNSPDTYGSSESPADLTPADQTPASSEGSPATDGAVEQLTAGLLILHAERMQLLSREQRTRDRFAALHPEVAVAEVAALPGDVHDLTGLRDIGDRLAANRPELPTSPGGALEHHHHHH”, with “soluble”; and “MSLDRVTISHMADALGVTKSTVSRAMNGYPDISEATQLRVKRMAEKMGYQPLSHAQAIKTGRARSLGLVLQFSDHDAQRPFLAEFLAGLSAGAHTDGWTLTVAAADGHDELIETFRAILRDGKADGFILPRAMSTDPRVYLLRDAGVPFVLFGRQDKEEGCAWFDVLGEEAMCDAVLHLATLGHRRIGFINGGLQYAYARLRAAGFADGMQIAGLEMDDSLIADDAMTMESGAVAAARILDTTNPPTALVCAVDFAALGAYRAAADRGIIIGRDLSIIGYDGIPEGAFAHPPLTTFAVDNRAAGFALATLLIQRIKGEPLETLRRLVPATFVERASTGEGHHHHHH”, with “not soluble”. Take “MSLDRVYHEFGATLRQLYQQDTPIIALCAAGIVIRTLAPLLLEKGAEPPVLAVAEDGSAVVPLLGGLGGVNVMAREIAAGLGVAAAITTSGELRFGTCLLNPPSGYALGDLELGKRFVSDLLGGESVRIEGAAPWLAAAKLPENDQARLTIRVGSAEREPVANELLIYPRSVLVACRGQRLAGEADSDLATHIRQALHQARIAVQSVACLLAADRDMADRALHQAAAQLGVPLRFLPAADSVAELAQQAVPQLLPPLKVGEDIAIAVASQPLDPEQIGRPREGHHHHHH”: the “soluble on expression in E. coli” value was “not soluble”. Turning to “MSLDSSLFRKPSPRPLRQPTTPFHLQKTLILDLDETLIHSTSRPIHYPGGSSGGGGLLGLSVGGVFGSGRANEGHTVEVVVNGRSTMYHVYKRPYVDHFLKKVASWYTLVIFTASMPEYADPVIDWLDGGRNLFARKLYRENCHVQPNGSYIKDLTLVEKDLSRVCFMDNSPVSYSWNKGRLFSTWRSLEPDRMGTANALPIEGWTSDPNDEALLHSIPVLDSLRFVNDVRRVLGIRGAARARSEGHHHHHH”, the “soluble on expression in E. coli” value was “soluble”.

In the case of “MSLDTFKNKPLGDNFTLTDSNGNTITEADIRSKPSIIFFGFTMCPESCPTTLTNLDRWLTSLGADADKLGVWFVTVDPERDTPEVLHDYLSNFNHKIVGISGEPEKVHKMVDSFNIVAEKVPGTDGNYTYNHTAAIFLLKKGGKLAGVIPYKIEKNNEELRDNIAIEKLKQLVLNEGHHHHHH”, the “soluble on expression in E. coli” value is “soluble”. As for “MSLDVQSDIVAYDAPKKDLYEIGEMPPLGHVPKEMYAWAIRRERHGEPDQAMQIEVVETPSIDSHEVLVLVMAAGVNYNGIWAGLGVPVSPFDGHKQPYHIAGSDASGIVWAVGDKVKRWKVGDEVVIHCNQDDGDDEECNGGDPMFSPTQRIWGYETPDGSFAQFTRVQAQQLMKRPKHLTWEEAACYTLTLATAYRMLFGHKPHDLKPGQNVLVWGASGGLGSYAIQLINTAGANAIGVISEEDKRDFVMGLGAKGVINRKDFKCWGQLPKVNSPEYNEWLKEARKFGKAIWDITGKGINVDMVFEHPGEATFPVSSLVVKKGGMVVICAGTTGFNCTFDVRYMWMHQKRLQGSHFANLKQASAANQLMIERRLDPCMSEVFPWAEIPAAHTKMYRNQHKPGNMAVLVQAPRTGLRTFADVLEAGRKEGHHHHHH”, the “soluble on expression in E. coli” value was “soluble”. To “MSLDVRQSIHSAHAKTLDTQGLRNEFLVEKVFVADEYTMVYSHIDRIIVGGIMPITKTVSVGGEVGKQLGVSYFLERRELGVINIGGAGTITVDGQCYEIGHRDALYVGKGAKEVVFASIDTGTPAKFYYNCAPAHTTYPTKKVTPDEVSPVTLGDNLTSNRRTINKYFVPDVLETCQLSMGLTELAPGNLWNTMPCHTHERRMEVYFYFNMDDDACVFHMMGQPQETRHIVMHNEQAVISPSWSIHSGVGTKAYTFIWGMVGENQVFDDMDHVAVKDLREGHHHHHH” belongs “soluble”. To “MSLDYANGNHVLIIPKYKGSLLFTKHKIRGIEFPGGKREKGEASETAAAREVFEETGATIKYCEYIAQYKVDRQIGMSFTKDVFMVEIEAITEQPDYFETDGPLLYKSLSEIPEDKKSYLLKDPAILQCLERVIELGFYSEGHHHHHH” belongs “not soluble”.

In the case of “MSLEAIHRSTRIEFSKSSLAYNVQYTKQVSGAKTLWLAVKSNAYGHGLLQVSKIARECGVDGLAVSVLDEGIAIRQAGIDDFILILGPIDVKYAPIASKYHFLTTVSSLDWLKSADKILGKEKLSVNLAVDTGMNRIGVRSKKDLKDEIEFLQEHSDHFSYDGIFTHFASSDNPDDHYFQRQKNRWYELIDGLIMPRYVHVMNSGAAMYHSKELPGCNSIARVGTVVYGVEPSEGVLGPIDKLKPVFELKSALTFVKKIPAGEGISYGSKFVTSRDTWIGTLPIGYGDGWLAEYQDFQLLIDGQKCRQVGQIAMDQMMVALPHEYPIGTEVTLIGKSGKYENTLYDLHKHSGVPPWKITVAFSDRLKRMVVDEGHHHHHH”, the “soluble on expression in E. coli” value was “soluble”. With “MSLEAKNTFDLSGGYVLPGFIDSHAHLLSTGLEQTRLNLFEYEAKIEAIDAIRRYAEKHDKVVAYRWDESRWRDDPTYITASDLDGIVKPVVAFRRDGHMAVANDQAMRSIGQHRPDGIFREEDMQMLDPLVKPGEEEYVQALQTAIGISASLGITGVRDIVDRATYDAYRRIKSNVRIFKVIYAEDLFAGFGSDPSDWGVKTFLDGSLGARTAAHEGWDTKNLKMSEQQFERFCEGTWSRNLPVAVHAIGDLAVRVAAETMHRHAGRQRNSIEHFELVEDGVLDIIDANTIVSAQPNFLEWAGHGGMYQDRLGESWLYRNNPYRDILDKGLKLAFGSDSMPLGPMYGIHYAVNSEFSQQRITFDEAVRSYSEAGSYLIGAENWIGRIETGYSADFAVFNERNIEDRRRLKEAKPLMTIVHGNTIYDASRVDEGHHHHHH”, the “soluble on expression in E. coli” value was “not soluble”.
